Here are results for two molecules from US20130177570A1 (PURDUE RESEARCH FOUNDATION, published 2013).

Assay [1] deals with T1, recombinant human folate receptor beta (FRβ), residues 22 to 236 (human, UniProt P14207 22-236).
T1 construct: Produced in SF9 insect cells with baculovirus, then purified by nickel column and gel filtration; also called recombinant FRβ; FRβ protein
The experiment in a line: ELISA, recombinant FRβ coated, Fab detected with anti-FLAG-HRP. As to the method:
To characterize the m909 antibody, an ELISA was performed as follows. FRβ, diluted in PBS, was coated on half of the wells of a 96 well plate at 50 ng/well overnight at 4° C. Wells were blocked with 100 μl of 4% milk/PBS (MPBS) for 1 hr at 37° C. For Fab binding kinetics, Fab was titrated from 3000 nM to 0.038 nM (1:5 serial dilutions) then 50 μl of diluted Fab was added to duplicate wells. After 2 hr incubation at 37° C., the wells were washed four times with PBST (PBS+0.05% Tween 20). Bound Fab was detected by incubating with anti-FLAG-horseradish peroxidase (HRP) mAb (1:1000) (Sigma) for 1 hr at 37° C. Wells were washed again with PBST. The HRP substrate 2,2′-azino-bis(3-ethylbenzthiazoline-6-sulphonic acid) (ABTS) was added (50 μl/well), and the absorbance at 405 nm was determined. For ELISA with IgG, a goat anti-human Fc IgG conjugated with HRP was used at 1:1000. FIG. 3 is a graph depicting the binding of m909 IgG₁ to FRβ.
(ELISA stands for enzyme-linked immunosorbent assay.)

Assay [2] concerns the target T1, recombinant human folate receptor beta …. The experiment in a line: phage display panning and screening on coated FRβ protein. As to the method:
Purified FRβ was used for panning of a human naïve (not deliberately immunized) Fab phage library. Briefly, 2 μg of FRβ was coated on a Maxisorp plate, which was then incubated with library phage (˜10¹² pfu) for 2 hr. After extensively washing the wells with PBS+0.05% Tween 20 (PBST), phage were rescued by incubating with exponentially growing TG1 bacteria and helper phage. The panning procedure was repeated three more times with more stringent conditions in the latter two rounds, including decreased amounts of FRβ protein and additional washes with PBST. Three hundred colonies were picked from the last two rounds of panning and rescued with helper phage.

The term EC50 denotes the concentration giving half of the maximal effect.

T1 sequence (P14207 other isoform, or with tags, fused parts or gaps): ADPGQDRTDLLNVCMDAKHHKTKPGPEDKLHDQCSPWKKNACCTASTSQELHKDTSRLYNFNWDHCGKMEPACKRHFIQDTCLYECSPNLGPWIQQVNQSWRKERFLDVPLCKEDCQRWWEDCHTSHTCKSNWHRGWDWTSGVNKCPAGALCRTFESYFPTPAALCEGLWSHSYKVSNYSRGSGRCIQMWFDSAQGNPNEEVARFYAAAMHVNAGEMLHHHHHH

B1: m909 Fab (Fab, V domains shown)
VH: EVQLVQSGAEVKKPGASVKVSCKASGYTFTSYAMHWVRQAPGQRLEWMGWINAGNGNTKYSQKFQGRVTITRDTSASTAYMELSSLRSEDTAVYYCARDISYGSFDYWGQGTLVTVSS
VL: SSELTQDPAVSVALGQTVRITCQGDSLRSNYANWYQQKPGQAPVLVIYGQNNRPSGIPDRFSGSSSGNTASLTITGAQAADEADYYCDSRVSTGNHVVFGGGTKLTVLG
notes: Soluble Fab expressed in E. coli HB2151; The phagemid adds His6 and FLAG tags at the C-terminus of the Fab
With B1, the EC50 in assay [1] was determined as 20 nM.

B2: m923 (Fab, V domains shown)
VH: B1 VH
VL: SSELTQDPAVSVALGQTVRITCQGDNLRSYYASWYRQKSGQAPVLVIYGKNNRPSGIPDRFSGSSSGNTASLTITAAQAEDEADYYCHSRKSRGNHLLFGGGTKLTVLG
notes: Clone from the Fab phage library after light chain shuffling; also called clone m923
Consider B2, for which the binding result in assay [2] is “binds”.
